In patent publication US20250009876A1 (H LUNDBECK A S, published 2025):
Read-outs that look alike come from different tables or passages of the source.

T1: PACAP38 (Pituitary Adenylate Cyclase-Activating Polypeptide, 38 amino acids) (human, not fully specified; the C-terminal lysine is amidated)
T1 peptide: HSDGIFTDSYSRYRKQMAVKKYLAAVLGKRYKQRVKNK

T2: PACAP27 (Pituitary Adenylate Cyclase-Activating Polypeptide, 27 amino acids) (human, the C-terminal leucine is amidated)
T2 peptide: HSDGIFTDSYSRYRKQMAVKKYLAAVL

T3: PAC1-R on PAC1-R-expressing PC-12 cells (UniProt P32215 20-523)
T3 construct: whole, on cells; also called PAC1 receptor
T3 sequence (looked up): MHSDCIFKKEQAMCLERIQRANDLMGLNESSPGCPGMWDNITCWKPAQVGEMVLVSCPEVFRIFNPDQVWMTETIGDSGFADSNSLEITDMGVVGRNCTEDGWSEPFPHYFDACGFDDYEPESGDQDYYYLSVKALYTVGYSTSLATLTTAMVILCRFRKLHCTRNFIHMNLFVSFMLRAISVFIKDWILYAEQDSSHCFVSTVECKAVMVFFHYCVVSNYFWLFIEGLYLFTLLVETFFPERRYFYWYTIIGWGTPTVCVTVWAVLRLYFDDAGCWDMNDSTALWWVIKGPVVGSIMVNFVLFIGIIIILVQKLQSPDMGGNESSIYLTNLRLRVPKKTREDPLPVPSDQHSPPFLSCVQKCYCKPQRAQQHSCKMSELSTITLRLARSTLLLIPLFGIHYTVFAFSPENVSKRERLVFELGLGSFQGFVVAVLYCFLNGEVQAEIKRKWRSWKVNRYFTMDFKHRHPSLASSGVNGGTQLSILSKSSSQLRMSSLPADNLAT

T4: VIP (Vasoactive Intestinal Peptide) (human)
T4 construct: also called human VIP
T4 peptide: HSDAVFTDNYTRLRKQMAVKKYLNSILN


Columns and labels:
[1] = target: T1, PACAP38 (Pituitary Adenylate …); assay: cell-based or functional assay
[2] = target: T2, PACAP27 (Pituitary Adenylate …); assay: cell-based or functional assay
[3] = target: T3, PAC1-R on PAC1-R-expressing PC-12 cells; assay: cell surface binding assay (DELFIA TRF): antibody pre-incubated with PACAP38, added to PAC1-R-expressing PC-12 cells, detected with Eu anti-human IgG
Experimental: Cells were initially seeded at 1×10⁵ cells/well in a solution of complete RPMI (“cRPMI”: RPMI medium supplemented with 10% sterile heat-inactivated FBS and 1% sterile antibiotic/antimycotic)+10% FBS, and the plates were allowed to incubate overnight at 37° C. On the day of the binding assay, antibodies at an initial concentration of 15 μg/ml were diluted at a 1:3 ratio in DELFIA® binding buffer (50 mM Tris, 150 mM NaCl, 0.1% azide, 2% horse serum) (Perkin-Elmer, Waltham, MA) to a total volume of 60 μL in a separate 96 well round bottom plate. PACAP38 was prepared for the binding assay by diluting it in DELFIA® binding buffer to a concentration of 200 nM, and then 60 μl of the diluted PACAP38 was added to each of the antibody-containing wells to form antibody: antigen complexes. Following addition of PACAP38, the antibody: antigen complexes were incubated at room temperature on a shaker for 1 hour. Separately, the PC-12 cells were prepared for addition of antibody: antigen complexes by washing the cells two times with DELFIA® wash buffer (50 mM Tris, 150 mM NaCl, 0.1% Azide) (Perkin-Elmer, Waltham, MA). After washing the cells two times and following the 1 hour room temperature incubation of the antibody: antigen complexes, 50 μl of the antibody: antigen complex was added to each well containing cells. The mixtures of cells and antibody: antigen complexes were then incubated for 30 minutes at room temperature. Following this 30 minute incubation, each mixture was washed two times with DELFIA® wash buffer (Perkin-Elmer, Waltham, MA).
DELFIA® Europium labeled anti-human IgG detection reagent (Cat #1244-330, Perkin-Elmer, Waltham, MA) was diluted to a concentration of 300 ng/ml in DELFIA® Binding Buffer. Following dilution, 50 μl of the anti-human IgG detection reagent was added to each well containing cells, and a 30 minute incubation at room temperature followed this addition of IgG detection reagent. After completion of the 30 minute room temperature incubation, the cells were then washed two times with DELFIA® wash buffer. Next, 50 μl of DELFIA® Enhancement Solution (Cat #1244-105, Perkin-Elmer, Waltham, MA) was added to each well containing cells for a final 15 minute room temperature incubation with shaking. The plates were then read (TRF, excitation 330 nm, emission 620 nm) on a SPECTRAMAX® (Molecular Devices, Sunnyvale, CA) plate reader.

[4] = target: T4, VIP (Vasoactive Intestinal Peptide); assay: SPR (ProteOn XPR36), antibody amine-coupled, peptide analyte, 1:1 Langmuir fit
[5] = target: T1, PACAP38 (Pituitary Adenylate …); assay: as above
Experimental: (§1) Binding affinities of monoclonal antibodies for human PACAP were estimated using SPR on the PROTEON™ XPR36 (Bio-Rad, Hercules, CA). Antibody was immobilized to the surface of general amine coupling (“GLC” or “GLM”) Chips (Bio-Rad, Hercules, CA). […] Antigen (ranging from 1.23 nM to 100 nM) was typically run sequentially with association times of 2-4 minutes and dissociation times of 3-120 minutes grouped with the PROTEON™ Manager Software (v3.1.0.6 (Bio-Rad, Hercules, CA)) and fitted using a 1:1 Langmuir binding model. Surfaces were regenerated between analyte queries using 0.85% Phosphoric Acid.

[6] = target: T2, PACAP27 (Pituitary Adenylate …); assay: as above
Experimental: as §1

[7] = target: T1, PACAP38 (Pituitary Adenylate …); assay: cell-based or functional assay
[8] = target: T1, PACAP38 (Pituitary Adenylate …); assay: cell-based or functional assay
[9] = target: T1, PACAP38 (Pituitary Adenylate …); assay: SPR (ProteOn XPR36), antibody amine-coupled, peptide analyte, 1:1 Langmuir fit
Experimental: (§2) Binding affinities of monoclonal antibodies for human PACAP were estimated using SPR on the PROTEON™ XPR36 (Bio-Rad, Hercules, CA). Antibody was immobilized to the surface of general amine coupling (“GLC″ or “GLM”) Chips (Bio-Rad, Hercules, CA). […] Antigen (ranging from 1.23 nM to 100 nM) was typically run sequentially with association times of 2-4 minutes and dissociation times of 3-120 minutes grouped with the PROTEON™ Manager Software (v3.1.0.6 (Bio-Rad, Hercules, CA)) and fitted using a 1:1 Langmuir binding model. Surfaces were regenerated between analyte queries using 0.85% Phosphoric Acid, 0.5% SDS, and 0.1N NaOH.

[10] = target: T2, PACAP27 (Pituitary Adenylate …); assay: as above
Experimental: as §2

[11] = target: T4, VIP (Vasoactive Intestinal Peptide); assay: as above

| Inhibition of 0.1 nM PACAP38-induced PAC1-R mediated cAMP increase IC50 (pM) [1] [pM] | Inhibition of 1 nM PACAP27-induced PAC1-R mediated cAMP increase IC50 (pM) [2] [pM] | binding result [3] | Kd [4] [nM] | koff [4] [s⁻¹] | kon [4] [M⁻¹ s⁻¹] | Kd [5] [nM] | koff [5] [s⁻¹] | kon [5] [M⁻¹ s⁻¹] | Kd [6] [nM] | koff [6] [s⁻¹] | kon [6] [M⁻¹ s⁻¹] | Inhibition of 5 nM PACAP38-induced human VPAC1-R mediated cAMP increase IC50 (pM) [7] [pM] | Inhibition of 1 nM PACAP38-induced human VPAC2-R mediated cAMP increase IC50 (pM) [8] [pM] | Kd [9] [nM] | koff [9] [s⁻¹] | kon [9] [M⁻¹ s⁻¹] | Kd [10] [nM] | koff [10] [s⁻¹] | kon [10] [M⁻¹ s⁻¹] | Binder | other results |
| --- | --- | --- | --- | --- | --- | --- | --- | --- | --- | --- | --- | --- | --- | --- | --- | --- | --- | --- | --- | --- | --- |
|  |  | no binding (tested: about 70 nM) |  |  |  |  |  |  |  |  |  |  |  |  |  |  |  |  |  | Ab23 (antibody, human IgG1, kappa, N297A, V domains shown, Full-length anti-PACAP antibody; rabbit/human chimeric) VH: QSVEESGGRLVTPGTPLTLTCTVSGFSLNNYAMSWVRQAPGKGLEWIGIMGVNDITYYASWAKGRFTISKTSTTVDLKMTSLTTEDTATYFCTREIRDDGDSSDKLWGPGTLVTVSS VL: AIKMTQTPSSVSAAVGGTVTINCQASEDIYTNLAWYQQKPGQPPNLLIYDASDLASGVPSRFSGSGDGTQFTLTISAVQCEDAATYYCQGVAWSSNTGYGSAFGGGTEVVVKR |  |
| 83.4 | 275 |  |  |  |  |  |  |  |  |  |  | 2830 | 2880 | ≤ 0.0238 | ≤ 1e-05 | 420000 | ≤ 0.0351 | ≤ 1e-05 | 285000 | Ab21.H4 (antibody, human IgG1, kappa, N297A, Full-length humanized variant of Ab21) heavy: not shown light: DIVLTQSPSTLSASVGDRVTITCKSSESVYGDYLAWFQQKPGKAPKQLIYDASTLASGVPSRFSGSGSGTEFTLTISSLQPDDFATYYCAGGYVSAGVAFGGGTKVEIKRTVAAPSVFIFPPSDEQLKSGTASVVCLLNNFYPREAKVQWKVDNALQSGNSQESVTEQDSKDSTYSLSSTLTLSKADYEKHKVYACEVTHQGLSSPVTKSFNRGEC | Kd [11]: 523 nM; koff [11]: 0.0289 s⁻¹; kon [11]: 55300 M⁻¹ s⁻¹ |

Further lines, the binder ahead of its results:

| Binder | Inhibition of 0.1 nM PACAP38-induced PAC1-R mediated cAMP increase IC50 (pM) [1] [pM] | Inhibition of 1 nM PACAP27-induced PAC1-R mediated cAMP increase IC50 (pM) [2] [pM] | binding result [3] | Kd [4] [nM] | koff [4] [s⁻¹] | kon [4] [M⁻¹ s⁻¹] | Kd [5] [nM] | koff [5] [s⁻¹] | kon [5] [M⁻¹ s⁻¹] | Kd [6] [nM] | koff [6] [s⁻¹] | kon [6] [M⁻¹ s⁻¹] | Inhibition of 5 nM PACAP38-induced human VPAC1-R mediated cAMP increase IC50 (pM) [7] [pM] | Inhibition of 1 nM PACAP38-induced human VPAC2-R mediated cAMP increase IC50 (pM) [8] [pM] | Kd [9] [nM] | koff [9] [s⁻¹] | kon [9] [M⁻¹ s⁻¹] | Kd [10] [nM] | koff [10] [s⁻¹] | kon [10] [M⁻¹ s⁻¹] | other results |
| --- | --- | --- | --- | --- | --- | --- | --- | --- | --- | --- | --- | --- | --- | --- | --- | --- | --- | --- | --- | --- | --- |
| Ab10.H5 (antibody, human IgG1, kappa, N297A, Full-length humanized variant of Ab10) heavy: not shown light: QLTQSPSTLSASVGDRVTITCQSSESVYGNYLAWFQQKPGKAPKFLIYEASKLESGVPSRFSGSGSGTEFTLTISSLQPDDFATYYCAGGDISEGVAFGGGTKVEIKRTVAAPSVFIFPPSDEQLKSGTASVVCLLNNFYPREAKVQWKVDNALQSGNSQESVTEQDSKDSTYSLSSTLTLSKADYEKHKVYACEVTHQGLSSPVTKSFNRGEC | 22.7 | 733 | no binding (tested: about 70 nM) |  |  |  |  |  |  |  |  |  |  |  |  |  |  |  |  |  |  |
| Ab10.H2 (antibody, human IgG1, kappa, N297A, Full-length humanized variant of Ab10) heavy: not shown light: AVLTQSPSTLSASVGDRVTITCQSSESVYGNYLAWFQQKPGKAPKFLIYEASKLESGVPSRFSGSGSGTEFTLTISSLQPDDFATYYCAGGDISEGVAFGGGTKVEIKRTVAAPSVFIFPPSDEQLKSGTASVVCLLNNFYPREAKVQWKVDNALQSGNSQESVTEQDSKDSTYSLSSTLTLSKADYEKHKVYACEVTHQGLSSPVTKSFNRGEC | 21.3 | 466 | no binding (tested: about 70 nM) | 230 | 0.046 | 200000 | 0.022 | 1.4e-05 | 630000 | 0.078 | 1.7e-05 | 210000 |  |  |  |  |  |  |  |  |  |
| Ab10.H4 (antibody, human IgG1, kappa, N297A, Full-length humanized variant of Ab10) heavy: not shown light: DIVLTQSPSTLSASVGDRVTITCQSSESVYGNYLAWFQQKPGKAPKFLIYEASKLESGVPSRFSGSGSGTEFTLTISSLQPDDFATYYCAGGDISEGVAFGGGTKVEIKRTVAAPSVFIFPPSDEQLKSGTASVVCLLNNFYPREAKVQWKVDNALQSGNSQESVTEQDSKDSTYSLSSTLTLSKADYEKHKVYACEVTHQGLSSPVTKSFNRGEC | 22.8 | 329 | no binding (tested: about 70 nM) | 98 | 0.015 | 150000 | ≤ 0.019 | ≤ 1e-05 | 530000 | 0.093 | 1.7e-05 | 190000 |  |  |  |  |  |  |  |  |  |
| Ab21.H3 (antibody, human IgG1, kappa, N297A, Full-length humanized variant of Ab21) heavy: not shown light: DIQLTQSPSTLSASVGDRVTITCKSSESVYGDYLAWFQQKPGKAPKQLIYDASTLASGVPSRFSGSGSGTEFTLTISSLQPDDFATYYCAGGYVSAGVAFGGGTKVEIKRTVAAPSVFIFPPSDEQLKSGTASVVCLLNNFYPREAKVQWKVDNALQSGNSQESVTEQDSKDSTYSLSSTLTLSKADYEKHKVYACEVTHQGLSSPVTKSFNRGEC | 65.3 | 318 |  |  |  |  |  |  |  |  |  |  | 2520 | 1530 | ≤ 0.0223 | ≤ 1e-05 | 449000 | ≤ 0.0311 | ≤ 1e-05 | 322000 | Kd [11]: 424 nM; koff [11]: 0.0249 s⁻¹; kon [11]: 58700 M⁻¹ s⁻¹ |
